Earlier results in PMC3515962.

Molecular target: IL-2 receptor (Mus musculus) (UniProt P01590)
Experiment: radioligand binding

Chain of UniProt P01590 (P01590 22-236, chain 1 of 3): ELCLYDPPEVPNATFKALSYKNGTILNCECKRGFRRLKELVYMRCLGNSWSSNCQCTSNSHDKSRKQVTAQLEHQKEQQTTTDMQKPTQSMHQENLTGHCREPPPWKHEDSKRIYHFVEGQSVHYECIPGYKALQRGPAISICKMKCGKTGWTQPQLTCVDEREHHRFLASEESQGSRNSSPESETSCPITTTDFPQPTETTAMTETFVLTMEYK
Chain of UniProt P01590 (P16297 27-240, chain 2 of 3, further chain): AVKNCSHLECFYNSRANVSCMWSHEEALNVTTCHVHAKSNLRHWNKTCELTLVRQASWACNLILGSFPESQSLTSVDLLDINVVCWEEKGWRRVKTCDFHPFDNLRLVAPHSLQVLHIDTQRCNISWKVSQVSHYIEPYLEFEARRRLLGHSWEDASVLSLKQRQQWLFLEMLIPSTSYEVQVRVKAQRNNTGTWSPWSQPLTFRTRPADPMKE
Chain of UniProt P01590 (P34902 23-263, chain 3 of 3, further chain): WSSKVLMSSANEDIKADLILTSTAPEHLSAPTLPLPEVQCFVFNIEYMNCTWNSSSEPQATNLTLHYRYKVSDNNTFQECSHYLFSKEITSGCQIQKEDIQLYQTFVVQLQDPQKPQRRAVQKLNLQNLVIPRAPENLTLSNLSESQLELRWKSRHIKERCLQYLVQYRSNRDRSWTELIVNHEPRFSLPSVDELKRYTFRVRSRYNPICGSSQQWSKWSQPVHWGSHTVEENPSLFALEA

TCGF (IL-2) (from UniProt P60568)
Kd: 0.02 nM
